# Reference: patent publication US20260297200 (published 2026)
# Changes are numbered by the printed parent chain.
# T1: mouse EGFR-His (mouse)
# T1 chain: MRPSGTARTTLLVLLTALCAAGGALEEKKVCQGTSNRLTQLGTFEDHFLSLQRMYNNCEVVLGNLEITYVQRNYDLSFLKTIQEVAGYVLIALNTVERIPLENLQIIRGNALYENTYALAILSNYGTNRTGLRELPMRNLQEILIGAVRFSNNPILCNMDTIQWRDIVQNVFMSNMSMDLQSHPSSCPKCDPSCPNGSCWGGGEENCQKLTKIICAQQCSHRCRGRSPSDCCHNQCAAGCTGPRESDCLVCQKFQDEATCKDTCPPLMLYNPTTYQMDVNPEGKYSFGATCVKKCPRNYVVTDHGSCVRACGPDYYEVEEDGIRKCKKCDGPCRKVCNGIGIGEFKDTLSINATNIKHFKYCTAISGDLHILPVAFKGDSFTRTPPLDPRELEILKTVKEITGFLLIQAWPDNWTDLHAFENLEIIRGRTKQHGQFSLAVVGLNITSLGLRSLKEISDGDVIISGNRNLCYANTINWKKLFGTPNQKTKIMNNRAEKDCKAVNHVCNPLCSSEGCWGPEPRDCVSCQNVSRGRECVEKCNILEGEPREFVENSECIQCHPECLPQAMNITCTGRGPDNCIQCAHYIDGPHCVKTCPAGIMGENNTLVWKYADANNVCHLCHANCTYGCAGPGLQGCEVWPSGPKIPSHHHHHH
# B1: scDb-scFv YU250-H10xhuU3 CD3 arm (antibody, V domains shown)
# VH: QVQLVQSGAEVKKPGSSVKVSCKASGGTFSGYTMNWVRQAPGQGLEWMGLINPYKGVSTYNGKFKDRVTITADKSTSTAYMELSSLRSEDTAVYYCARSGYYGDSDWYFDVWGQGTLVTVSS
# VL: DIQMTQSPSSLSASVGDRVTITCRASQDIRNYLNWYQQKPGKAPKLLIYYTSRLHSGVPSRFSGSGSGTDFTFTISSLQPEDIATYYCQQGNTLPWTFGQGTKLEIKR
# B2: scDb YU250-H10xhuU3 CD3 arm (antibody, V domains shown)
# VH: B1 VH
# VL: B1 VL
# B3: eIg YU250-H10xhuU3 CD3 arm (antibody, V domains shown)
# VH: B1 VH
# VL: B1 VL
# B4: Fab-eIg YU250-H10xhuU3 CD3 arm (antibody, V domains shown)
# VH: B1 VH
# VL: B1 VL
# B5: eIg MKU011-A7xhuU3 EGFR arm (antibody, V domains shown)
# VH: QVQLVQSGGGVVQPGGSLRLSCAASGFTFSSYGMHWVRQAPGKGLEWVAFIRYDGSNKYYADSVKGRFTISRDNSKNTLYLQMNSLRAEDTAVYYCAKDGNSGYDSMDYWGQGTLVTVSS
# VL: QPVLTQSPSASGTPGQRVTISCSGVSSNIGRNYVYWYQQFPGTAPKLLIYATHQRPSGVPDRFSGSKSGTSASLAISGLRSEDEANYYCAAWDDGVTGWVFGGGTKLTVLG
# B6: Fab-eIg MKU011-A7xhuU3 EGFR arm (antibody, V domains shown)
# VH: B5 VH
# VL: QPVLTQSPSASGTPGQRVTISCSGVSSNIGRNYVYWYQQFPGTAPKLLIYATHQRPSGVPDRFSGSKSGTSASLAISGLRSEDEANYYCAAWDDGVTGWVFGGGTKLTVL
# B7: YU250-H10 Fab-His (antibody)
# chain 1: B5 VH
# chain 2: QSVLTQPPSVSGAPGQRVTISCSGGSSNVGRNGVNWFQHLPEKAPKLLIYYDAFLSSGVSDRFSGSKSGTSASLAIRGLQSDDEADYYCAAWDDSLYSWVFGGGTNLTVL
# B8: MKU011-A7 Fab-His (antibody, V domains shown)
# VH: B5 VH
# VL: B6 VL
# B9: Fab-eIg YU250-H10xhuU3 EGFR arm (antibody)
# chain 1: B5 VH
# chain 2: B7 chain 2
# B10: YU250-A02 Fab-His (antibody, V domains shown)
# VH: B5 VH with V5Q, Q6E
# VL: B7 chain 2 with D82E, A91S, Y97T, S98G, N106K
# B11: Db3-43xH10-Ig EGFR arm (antibody)
# chain 1: B5 VH
# chain 2: B7 chain 2
# B12: scDb YU250-H10xhuU3 EGFR arm (antibody)
# chain 1: B5 VH
# chain 2: B7 chain 2
# B13: Fab-eIg 2+2 H10x3-43 EGFR arm (antibody)
# chain 1: B5 VH
# chain 2: B7 chain 2
# B14: scDb-scFv YU250-H10xhuU3 EGFR arm (antibody)
# chain 1: B5 VH
# chain 2: B7 chain 2
# B15: eIg YU250-H10xhuU3 EGFR arm (antibody)
# chain 1: not shown
# chain 2: QSVLTQPPSVSGAPGQRVTISCSGGSSNVGRNGVNWFQHLPEKAPKLLIYYDAFLSSGVSDRFSGSKSGTSASLAIRGLQSDDEADYYCAAWDDSLYSWVFGGGTNLTVLGQPKAAPSVTLFPPSSEELQANKATLVCLISDFYPGAVTVAWKADSSPVKAGVETTTPSKQSNNKYAASSYLSLTPEQWKSHRSYSCQVTHEGSTVEKTVAPTECS
# B16: Db3-43x3-43/FabH10-Fckih EGFR arm (antibody)
# chain 1: not shown
# chain 2: B15 chain 2
# B17: eIg 1+1 H10x4D5 EGFR arm (antibody)
# chain 1: not shown
# chain 2: B15 chain 2
# B18: eIg 1+1 H10x5D5 EGFR arm (antibody)
# chain 1: not shown
# chain 2: B15 chain 2
# B19: Fab/scFv-Fc H10x3-43 EGFR arm (antibody)
# chain 1: not shown
# chain 2: B15 chain 2
# B20: eIg 1+1 H10x3-43 EGFR arm (antibody)
# chain 1: not shown
# chain 2: B15 chain 2
# B21: eIg 1+1 H10x5D5 MET arm (antibody, V domains shown)
# VH: EVQLVESGGGLVQPGGSLRLSCAASGYTFTSYWLHWVRQAPGKGLEWVGMIDPSNSDTRFNPNFKDRFTISADTSKNTAYLQMNSLRAEDTAVYYCATYRSYVTPLDYWGQGTLVTVSS
# VL: DIQMTQSPSSLSASVGDRVTITCKSSQSLLYTSSQKNYLAWYQQKPGKAPKLLIYWASTRESGVPSRFSGSGSGTDFTLTISSLQPEDFATYYCQQYYAYPWTFGQGTKVEIKR
# B22: Panitumumab (antibody, V domains shown)
# VH: QVQLQESGPGLVKPSETLSLTCTVSGGSVSSGDYYWTWIRQSPGKGLEWIGHIYYSGNTNYNPSLKSRLTISIDTSKTQFSLKLSSVTAADTAIYYCVRDRVTGAFDIWGQGTMVTVSS
# VL: DIQMTQSPSSLSASVGDRVTITCQASQDISNYLNWYQQKPGKAPKLLIYDASNLETGVPSRFSGSGSGTDFTFTISSLQPEDIATYFCQHFDHLPLAFGGGTKVEIKR
# Key:
# CD3 on Jurkat = CD3 on Jurkat (human, UniProt P07766); assay: FACS, Jurkat
# human EGFR on cells [1] = target: T2, human EGFR on cells (human, UniProt P00533); assay: FACS, SW620
# human EGFR on cells [2] = target: T2, human EGFR on cells; assay: FACS, HCT-116
# human EGFR on cells [3] = target: T2, human EGFR on cells; assay: FACS, FaDu
# EGFR-His (human ECD) = EGFR-His (human ECD) (human); assay: BLI
# human EGFR on cells [4] = target: T2, human EGFR on cells; assay: FACS, FaDu; remark: listed apart in the source
# EGFR-moIgG2a-Fc = EGFR-moIgG2a-Fc (human); assay: ELISA
# human EGFR on cells [5] = target: T2, human EGFR on cells; assay: FACS, LIM1215
# MET-huFc = MET-huFc (human); assay: ELISA
# mouse EGFR-His = target: T1, mouse EGFR-His; assay: ELISA, 10 nM
# Chain of CD3 on Jurkat (P07766 23-207): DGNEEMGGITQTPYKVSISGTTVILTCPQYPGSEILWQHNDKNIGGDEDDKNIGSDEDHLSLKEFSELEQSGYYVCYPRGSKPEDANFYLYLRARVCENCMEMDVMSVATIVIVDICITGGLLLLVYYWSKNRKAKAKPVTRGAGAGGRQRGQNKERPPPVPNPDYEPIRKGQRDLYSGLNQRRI
# Chain of MET-huFc (human) (chain, as listed by the source): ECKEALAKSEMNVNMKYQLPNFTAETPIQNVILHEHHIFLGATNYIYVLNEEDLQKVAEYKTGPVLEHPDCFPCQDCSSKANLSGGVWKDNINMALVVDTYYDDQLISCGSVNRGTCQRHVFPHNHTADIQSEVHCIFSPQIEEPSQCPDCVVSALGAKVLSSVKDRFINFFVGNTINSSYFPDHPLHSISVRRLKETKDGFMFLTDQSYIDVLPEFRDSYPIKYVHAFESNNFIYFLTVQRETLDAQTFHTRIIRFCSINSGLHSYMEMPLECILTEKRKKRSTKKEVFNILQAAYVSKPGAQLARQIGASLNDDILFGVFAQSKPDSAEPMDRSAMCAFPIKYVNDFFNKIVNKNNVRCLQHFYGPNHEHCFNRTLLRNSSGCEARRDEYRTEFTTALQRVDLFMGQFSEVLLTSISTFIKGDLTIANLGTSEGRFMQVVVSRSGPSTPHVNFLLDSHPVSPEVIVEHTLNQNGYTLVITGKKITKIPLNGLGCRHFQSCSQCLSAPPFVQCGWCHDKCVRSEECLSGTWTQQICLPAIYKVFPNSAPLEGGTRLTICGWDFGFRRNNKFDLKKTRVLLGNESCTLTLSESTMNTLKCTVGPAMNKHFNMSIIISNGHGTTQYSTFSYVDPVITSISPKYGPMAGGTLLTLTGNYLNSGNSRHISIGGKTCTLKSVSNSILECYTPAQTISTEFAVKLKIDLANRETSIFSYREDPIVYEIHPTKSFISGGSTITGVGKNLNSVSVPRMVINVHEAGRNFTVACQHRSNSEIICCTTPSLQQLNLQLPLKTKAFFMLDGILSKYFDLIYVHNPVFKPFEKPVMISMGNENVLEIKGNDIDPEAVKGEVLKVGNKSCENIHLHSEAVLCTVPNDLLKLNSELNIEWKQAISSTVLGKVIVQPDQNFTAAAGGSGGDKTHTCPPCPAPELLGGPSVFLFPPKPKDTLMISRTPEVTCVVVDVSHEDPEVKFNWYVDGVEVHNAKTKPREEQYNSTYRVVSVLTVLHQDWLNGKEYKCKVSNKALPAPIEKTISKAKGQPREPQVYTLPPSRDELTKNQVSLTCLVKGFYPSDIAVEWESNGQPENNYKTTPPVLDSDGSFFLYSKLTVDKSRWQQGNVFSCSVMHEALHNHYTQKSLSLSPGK
binder,measurement,setting,value
B1,EC50,CD3 on Jurkat,> 10 nM
B2,EC50,CD3 on Jurkat,7.56 nM
B3,EC50,CD3 on Jurkat,> 10 nM
B4,EC50,CD3 on Jurkat,> 10 nM
B5,EC50,human EGFR on cells [1],0.74 nM
same,EC50,human EGFR on cells [2],4.28 nM
same,EC50,human EGFR on cells [3],3.28 nM
B6,EC50,human EGFR on cells [1],0.03 nM
same,EC50,human EGFR on cells [2],0.16 nM
same,EC50,human EGFR on cells [3],0.4 nM
B7,Kd,EGFR-His (human ECD),4.17 nM
B8,Kd,EGFR-His (human ECD),55.8 nM
B9,EC50,human EGFR on cells [1],0.03 nM
same,EC50,human EGFR on cells [4],0.76 nM
same,EC50,human EGFR on cells [2],0.13 nM
same,EC50,human EGFR on cells [3],0.32 nM
B10,Kd,EGFR-His (human ECD),12.9 nM
B11,EC50,EGFR-moIgG2a-Fc,0.9 nM
B12,EC50,human EGFR on cells [4],1.68 nM
same,EC50,human EGFR on cells [5],1.02 nM
B13,EC50,EGFR-moIgG2a-Fc,0.5 nM
B14,EC50,human EGFR on cells [4],0.74 nM
same,EC50,human EGFR on cells [5],0.31 nM
B15,EC50,human EGFR on cells [1],0.21 nM
same,EC50,human EGFR on cells [4],2.17 nM
same,EC50,human EGFR on cells [5],0.85 nM
same,EC50,human EGFR on cells [2],0.46 nM
B16,EC50,EGFR-moIgG2a-Fc,0.1 nM
B17,EC50,EGFR-moIgG2a-Fc,6.2 nM
B18,EC50,EGFR-moIgG2a-Fc,1.1 nM
B19,EC50,EGFR-moIgG2a-Fc,0.3 nM
B20,EC50,EGFR-moIgG2a-Fc,0.5 nM
B21,EC50,MET-huFc,4.1 nM
B22,binding result,mouse EGFR-His,no binding
